The values below come from paper PMC4177672, “The Vip1 Inositol Polyphosphate Kinase Family Regulates Polarized Growth and Modulates the Microtubule Cytoskeleton in Fungi” (PLoS Genetics, 2014).

Usually Km stands for the substrate concentration at which the rate is half of its maximum.

In data set [1] the test system is O=P(O)(O)O[C@H]1[C@H](OP(=O)(O)O)[C@@H](OP(=O)(O)O)[C@H](OP(=O)(O)O)[C@@H](OP(=O)(O)O)[C@H]1OP(=O)(O)O. Kind of data set: purified protein. The settings on record: 0-300 µM IP6; ATP-dependent; 2 µg protein; 6 h.
For another data set, the target named is T1, GST-Vip1^1-535 (Saccharomyces cerevisiae, UniProt Q06685).
T1 construct: kinase domain residues 1-535, GST tag kept, E. coli Rosetta, purified
Kind of data set: IP7 formation, PAGE with Toluidine Blue stain. Format: biochemical. The settings on record: 1 µg protein; positive control enzyme.

T1 sequence (Q06685 1-535): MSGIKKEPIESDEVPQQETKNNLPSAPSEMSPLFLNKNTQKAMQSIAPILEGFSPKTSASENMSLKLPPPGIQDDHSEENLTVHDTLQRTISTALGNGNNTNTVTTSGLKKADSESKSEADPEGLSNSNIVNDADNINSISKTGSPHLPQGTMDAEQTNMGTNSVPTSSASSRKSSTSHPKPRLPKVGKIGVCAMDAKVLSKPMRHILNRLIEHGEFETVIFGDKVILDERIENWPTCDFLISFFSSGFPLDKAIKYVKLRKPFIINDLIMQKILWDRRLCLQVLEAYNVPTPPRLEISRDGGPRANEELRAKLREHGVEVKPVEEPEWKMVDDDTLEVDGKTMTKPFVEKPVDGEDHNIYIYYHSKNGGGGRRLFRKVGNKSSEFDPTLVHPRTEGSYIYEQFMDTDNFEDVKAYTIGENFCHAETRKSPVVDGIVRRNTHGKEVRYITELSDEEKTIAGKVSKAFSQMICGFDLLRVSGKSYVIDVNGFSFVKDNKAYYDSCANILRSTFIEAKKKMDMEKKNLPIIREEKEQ

With “GST-Asp1 (full length) (Schizosaccharomyces pombe 972h-; H397A)”, in data set [1], the Michaelis constant (Km) is listed as 57.32 µM.

As for “GST-Asp1 (full length) (Schizosaccharomyces pombe 972h-)”, the Michaelis constant (Km) in data set [1] is 58.18 µM.

In the case of `O=P(O)(O)O[C@H]1[C@H](OP(=O)(O)O)[C@@H](OP(=O)(O)O)[C@H](OP(=O)(O)O)[C@@H](OP(=O)(O)O)[C@H]1OP(=O)(O)O` [IP6], the “IP7 formation, PAGE with Toluidine Blue stain” value on GST-Vip1^1-535 was “S. cerevisiae Vip1 for which enzymatic activity had been demonstrated was used as a positive control”.
